How the values were obtained:
[1] = target: RSV clinical isolate A2001/2-20 fusion (F) protein (respiratory syncytial virus strain A2001/2-20); experiment: co-IP; 293T cells co-transfected with EGFR and an RSV F construct; RIPA lysates 24 h after transfection; F precipitated with motavizumab on protein-A magnetic beads overnight at 4°C, washed in RIPA; blots for EGFR and RSV F, ratio of EGFR to F1
[2] = target: Epidermal growth factor receptor (UniProt P00533)

Substance	fold ratio of co-precipitated EGFR to F, against A2 F [1]	ratio of p-EGFR to EGFR by Western blot in serum-starved HEp-2 cells 24 h after transfection with 2–20 F, against A2 F [2]
Epidermal growth factor receptor (from UniProt P00533 25-1210)	2.8 fold	–
RSV clinical isolate A2001/2-20 fusion (F) protein (natural protein)	–	4.45 fold

Source: publication PMC4859522
